# B1: full length S. pombe Pik1, wild type [S. pombe] / purified Cdc4 protein [S. pombe] (parent)
# chain 1: MPSSNSGNELLLRFFESAHFTSQLCVAYLSRYPNNIGIHHFLCEKLATFPYEEIEFFIPQLIHLVLNKDSESVALEEFIISQCEQNTQCALITFWYLQAHMVDLGLQPHSSCFKICKRLYNRIQILVFMSSSSLIQSQQKISENVTPALILSGIMLGGVCVPELLKKAGPIAIAQGRKAPRQDPDESDVDVLRRLSTEPRYSLDVLRSSLNNSIVEQHSEVSLRLKAPELTRTHSYQSSATLSIDEQRRVLRSNYFQQEIQFLFALQDISIRLIIVPRQARLSSLRAELALLNNNLPADVNIPLLRSYHKEVSHKIVRIDPKEATILNSAERVPYLIMVEVLSGELSFEPQSKKNKAKVQKIVSHKNQRKRWFDLTDVDPYTNLQDSTDNDISESESEGGDLSMSPLIKGLVPDTLSLSKSFSSFGNVSLQVPSSHRDTDVVLLSGRHSDSDGNGALKRSKIYASEITARMRAAATMLSQLDAEGSRRPKAETERIKNSIILDMQRLEEERLNEPSIYPVSVDISCAEDLRFGKETQKAERKGDRDDPSAATFQEDWYAKKERIRKSSPYGHYPNWDLVSVIVKTGADLRQETFACQLIYAFQRVWLECKEKVWVRRMKILVTGDNSGLIETITNAISVHSIKKNLTKQLREAELAQGKIAGKNVVTLKDYFIKQFGDPNSSRYRQAQTNFLQSLVAYSIISYLLQLKDRHNGNVLIDSEGHIIHIDFGFLLTNTPGNVGFESAPFKLTADYLEILDDRFDEYRSLMKAAFKSVRKNADQIILLVEVMQNNSTMPCFRAGENTSAQLLQRFQLQLGDKECDDFVDLLIQKANCSVWTRLYDLFQNITNGIY
# chain 2: MSTDDSPYKQAFSLFDRHGTGRIPKTSIGDLLRACGQNPTLAEITEIESTLPAEVDMEQFLQVLNRPNGFDMPGDPEEFVKGFQVFDKDATGMIGVGELRYVLTSLGEKLSNEEMDELLKGVPVKDGMVNYHDFVQMILAN
# Variants of: B1
# Test: sandwich ELISA
# Conditions: with purified Cdc4 protein [S. pombe]; about 7 µg lysate protein; cells grown in the absence of thiamine; Cdc4-coated wells; parent: 0.02; read off a plot
row,response,Variant
1,0.083 Absorbance,chain 1 D709A

# Same assay, conditions: with purified Cdc4 protein [S. pombe]; about 14 µg lysate protein; cells grown in the absence of thiamine; Cdc4-coated wells; parent: 0.03; read off a plot
row,response,Variant
1,0.13 Absorbance,chain 1 D709A

# Same assay, conditions: with purified Cdc4 protein [S. pombe]; about 28 µg lysate protein; cells grown in the absence of thiamine; Cdc4-coated wells; parent: 0.073; read off a plot
row,response,Variant
1,0.21 Absorbance,chain 1 D709A

# Same assay, conditions: with purified Cdc4 protein [S. pombe]; about 56 µg lysate protein (highest point of 2-fold serial dilution); cells grown in the absence of thiamine; Cdc4-coated wells; parent: 0.27; read off a plot
row,response,Variant
1,0.57 Absorbance,chain 1 D709A

# Reference: article PMC2704394 (2009)
